Data set [1] has as its target T1, geranylgeranyl pyrophosphate synthase (GGPPS) (Homo sapiens, UniProt O95749, Y246D/C247L).
T1 construct: gene GGPS1

Data set [2] concerns the molecule itself. The data set is described as follows: SEC; HiLoad 16/600 Superdex 200 step of the purification; 10 mM HEPES pH 7.5, 500 mM NaCl, 2 mM β-mercaptoethanol, 5% glycerol; mass estimated from a standard curve; self-association.
Data set [3] deals with the molecule itself. The data set is described as follows: differential scanning fluorimetry (Tm) + native gel or EMSA; oligomeric state inferred from Tm without inhibitor (10 mM HEPES pH 7.5, 100 mM NaCl, 3 mM MgCl2, 0.5 mM TCEP, 5 μM protein), supported by native-PAGE (S2 Fig); self-association.

The source of these data is publication PMC11734896, “Engineering dimer mutants of human geranylgeranyl pyrophosphate synthase” (PLOS ONE, 2025).

Numbering of substitutions follows the chain as printed. In names and notes the source's numbering stands.

T1 sequence (O95749 whole entry Y246D/C247L): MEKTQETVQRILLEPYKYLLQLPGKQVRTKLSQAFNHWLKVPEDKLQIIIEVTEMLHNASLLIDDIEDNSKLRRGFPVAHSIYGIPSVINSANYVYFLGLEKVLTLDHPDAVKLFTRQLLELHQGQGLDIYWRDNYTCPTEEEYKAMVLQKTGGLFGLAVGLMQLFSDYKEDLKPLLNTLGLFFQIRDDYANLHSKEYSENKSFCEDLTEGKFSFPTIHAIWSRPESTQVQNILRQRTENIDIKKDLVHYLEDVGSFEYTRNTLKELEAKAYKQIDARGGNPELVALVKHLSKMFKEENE

As to `C=C(C)CCO[P@@](=O)(O)OP(=O)(O)O` [IPP, isopentenyl pyrophosphate], the “X-ray crystal structure, 2.1 Å” value in data set [1] was “clearly indicated the presence of IPP within its anticipated binding site in one subunit of the dimer mutant”.

B1: wild-type human geranylgeranyl pyrophosphate synthase (enzyme)
chain: MEKTQETVQRILLEPYKYLLQLPGKQVRTKLSQAFNHWLKVPEDKLQIIIEVTEMLHNASLLIDDIEDNSKLRRGFPVAHSIYGIPSVINSANYVYFLGLEKVLTLDHPDAVKLFTRQLLELHQGQGLDIYWRDNYTCPTEEEYKAMVLQKTGGLFGLAVGLMQLFSDYKEDLKPLLNTLGLFFQIRDDYANLHSKEYSENKSFCEDLTEGKFSFPTIHAIWSRPESTQVQNILRQRTENIDIKKYCVHYLEDVGSFEYTRNTLKELEAKAYKQIDARGGNPELVALVKHLSKMFKEENE
notes: geranylgeranyl pyrophosphate synthase (GGPPS), human; theoretical subunit mass printed as 37,424 Da; The printed subunit mass of 37,424 Da is larger than that of the untagged natural protein as I recall it, so a tag was probably kept; also called GGPPS; WT GGPPS
As for B1, the “stoichiometry N” value in data set [2] was 6.

B2: human GGPPS Y246D/C247L mutant (enzyme)
chain: B1 chain with Y246D, C247L
notes: also called DL; DL mutant
As for B2, the “stoichiometry N” value in data set [2] is 2.

B3: human GGPPS Y246D/C205A mutant (enzyme)
chain: B1 chain with C205A, Y246D
notes: also called DA; DA mutant
Turning to B3, the “stoichiometry N” value in data set [3] was found to be 2.

B4: human GGPPS Y246K/C247L mutant (enzyme)
chain: B1 chain with Y246K, C247L
notes: also called KL; KL mutant
In the case of B4, the “stoichiometry N” value in data set [3] came to 2.
